B1: Wild-type RecA (RecA-wt) (natural protein, E. coli, UniProt P0A7G6 1-353, looked up)
chain: MAIDENKQKALAAALGQIEKQFGKGSIMRLGEDRSMDVETISTGSLSLDIALGAGGLPMGRIVEIYGPESSGKTTLTLQVIAAAQREGKTCAFIDAEHALDPIYARKLGVDIDNLLCSQPDTGEQALEICDALARSGAVDVIVVDSVAALTPKAEIEGEIGDSHMGLAARMMSQAMRKLAGNLKQSNTLLIFINQIRMKIGVMFGNPETTTGGNALKFYASVRLDIRRIGAVKEGENVVGSETRVKVVKNKIAAPFKQAEFQILYGEGINFYGELVDLGVKEKLIEKAGAWYSYKGEKIGQGKANATAWLKDNPETAKEIEKKVRELLLSNPNSTPDFSVDDSEGVAETNEDF
notes: wild-type RecA, Escherichia coli; source: purified as previously described (21,33)
B2: OL2 90-mer ssDNA (ssDNA)
DNA: AAATCAATCTAAAGTATATATGAGTAAACTTGGTCTGACAGTTACCAATGCTTAATCAGTGAGGCACCTATCTCAGCGATCTGTCTATTT

Assays:
[1] = biological target: the molecule itself; experiment: scanning-probe microscopy in dynamic force mode (DFM); RecA variant (0.2 μM RecA-wt or npRecA dimer, 0.8 μM npRecA monomer) incubated with linear pUC119 dsDNA (2.0 μM), ATPγS (0.5 mM), MgCl2 (10 mM), Tris-HCl pH 7.5, DTT, 30 min at 37°C; fixed with glutaraldehyde (0.2%) on mica; filament formation on DNA; also done with circular phage ssDNA
RecA-3mΔC = RecA-3mΔC (UniProt P0A7G6 2-337, C117M;S118V;Q119R); experiment: EMSA; 1.3 mM ATP; 'defective'; EMSA: standard reaction buffer (composition not in material), 4.5 uM (nt) ssDNA or 9.0 uM dsDNA, agarose gel, no fixation; 6-MI: 25 mM Tris-HCl pH 7.5, 10 mM MgCl2, 1 mM DTT, 25 C, 3.0 uM DNA; DFM: 0.5 mM ATPgS, 10 mM MgCl2, glutaraldehyde fixation; conditions: protein: recombinant; label: FAM
RecA-3mΔC, sequence (P0A7G6 2-337 C117M/S118V/Q119R): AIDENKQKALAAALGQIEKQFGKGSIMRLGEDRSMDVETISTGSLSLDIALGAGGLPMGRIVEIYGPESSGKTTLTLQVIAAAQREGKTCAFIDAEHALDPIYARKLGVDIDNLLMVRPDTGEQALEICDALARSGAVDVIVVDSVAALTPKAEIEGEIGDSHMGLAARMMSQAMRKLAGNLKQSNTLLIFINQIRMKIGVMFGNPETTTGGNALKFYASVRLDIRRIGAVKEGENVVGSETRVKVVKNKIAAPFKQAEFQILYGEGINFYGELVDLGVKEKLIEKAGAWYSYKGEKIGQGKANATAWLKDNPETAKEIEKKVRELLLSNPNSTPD

npRecA monomer = npRecA monomer (UniProt P0A7G6 31-337, C117M;S118V;Q119R); experiment: EMSA; no nucleotide cofactor; EMSA: standard reaction buffer (composition not in material), 4.5 uM (nt) ssDNA or 9.0 uM dsDNA, agarose gel, no fixation; 6-MI: 25 mM Tris-HCl pH 7.5, 10 mM MgCl2, 1 mM DTT, 25 C, 3.0 uM DNA; DFM: 0.5 mM ATPgS, 10 mM MgCl2, glutaraldehyde fixation; conditions: protein: recombinant; label: FAM
npRecA monomer, sequence (P0A7G6 31-337 C117M/S118V/Q119R): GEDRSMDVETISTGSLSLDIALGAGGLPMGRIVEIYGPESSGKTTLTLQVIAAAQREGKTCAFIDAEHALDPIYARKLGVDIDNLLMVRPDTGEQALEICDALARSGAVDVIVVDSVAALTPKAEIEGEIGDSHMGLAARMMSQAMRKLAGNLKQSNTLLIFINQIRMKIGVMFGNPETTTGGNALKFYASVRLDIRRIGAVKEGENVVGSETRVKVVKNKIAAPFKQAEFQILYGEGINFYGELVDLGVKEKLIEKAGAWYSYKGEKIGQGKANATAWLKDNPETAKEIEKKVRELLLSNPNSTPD

Binder	binding result [1]	binding result (RecA-3mΔC)	binding result (npRecA monomer)
B1	binds	–	–
B2	–	no binding	no binding

Reference: PMC6237804, “Nonfilament-forming RecA dimer catalyzes homologous joint formation” (Nucleic Acids Research, 2018)
